Reference: patent US20220127350A1 (NUMAB THERAPEUTICS, published 2022)

B1: A8 (trispecific scDb-scFv) (other)
chain: DIQMTQSPSSLSASVGDRVTITCQSSESVYSNNQLSWYQQKPGQPPKLLIYDASDLASGVPSRFSGSGSGTDFTLTISSLQPEDFATYYCAGGFSSSSDTAFGGGTKLTVLGGGGGSEVQLVESGGGLVQPGGSLRLSCAASGIDFSTYGISWVRQAPGKGLEWIAYIYPDYGITDYASWVNGRFTISLDNAQNTVYLQMNSLRAEDTAVYYCARSGSYYSRGWGAHYFNLWGQGTLVTVSSGGGGSGGGGSGGGGSGGGGSDIQMTQSPSSLSASVGDRVTINCQASESISSWLAWYQQKPGKRPKLLIYKASTLASGVPSRFSGSGSGTDYTLTISSLQPEDFATYYCQGYYLDSSVDDNVFGGGTKLTVLGGGGGSEVQLVESGGGLVQPGGSLRLSCAASGFSLSSNAMGWVRQAPGKGLEYIGIISVGGFTYYASWAKGRFTISRDNSKNTVYLQMNSLRAEDTATYFCARDRHGGDSSGAFYLWGQGTLVTVSSGGGGSGGGGSDIQMTQSPSSLSASVGDRVTITCQASQTINYWLAWYQQKPGKAPKLLIYRASTLASGVPSRFSGSGSGTDFTLTISSLQPEDFATYYCQNYYYSTSRSYGFGGGTKLTVLGGGGGSGGGGSGGGGSGGGGSEVQLVESGGGLVQPGGSLRLSCAASGFSFSSDYWMCWVRQAPGKGLEWIGCIYAGDVDDTDYASWARGRFTISRDNSKNTVYLQMNSLRAEDTAVYYCARVDGFDITYFDLWGQGTLVTVSS
notes: Single chain
B2: A7 (trispecific scDb-scFv) (other)
chain: DIQMTQSPSSLSASVGDRVTINCQASESISSWLAWYQQKPGKRPKLLIYKASTLASGVPSRFSGSGSGTDYTLTISSLQPEDFATYYCQGYYLDSSVDDNVFGGGTKLTVLGGGGGSEVQLVESGGGLVQPGGSLRLSCAASGFSFSSDYWMCWVRQAPGKGLEWIGCIYAGDVDDTDYASWARGRFTISRDNSKNTVYLQMNSLRAEDTAVYYCARVDGFDITYFDLWGQGTLVTVSSGGGGSGGGGSGGGGSGGGGSDIQMTQSPSSLSASVGDRVTITCQASQTINYWLAWYQQKPGKAPKLLIYRASTLASGVPSRFSGSGSGTDFTLTISSLQPEDFATYYCQNYYYSTSRSYGFGGGTKLTVLGGGGGSEVQLVESGGGLVQPGGSLRLSCAASGIDFSTYGISWVRQAPGKGLEWIAYIYPDYGITDYASWVNGRFTISLDNAQNTVYLQMNSLRAEDTAVYYCARSGSYYSRGWGAHYFNLWGQGTLVTVSSGGGGSGGGGSDIQMTQSPSSLSASVGDRVTITCQSSESVYSNNQLSWYQQKPGQPPKLLIYDASDLASGVPSRFSGSGSGTDFTLTISSLQPEDFATYYCAGGFSSSSDTAFGGGTKLTVLGGGGGSGGGGSGGGGSGGGGSEVQLVESGGGLVQPGGSLRLSCAASGFSLSSNAMGWVRQAPGKGLEYIGIISVGGFTYYASWAKGRFTISRDNSKNTVYLQMNSLRAEDTATYFCARDRHGGDSSGAFYLWGQGTLVTVSS
notes: Single chain; also called scDb-scFv A7
B3: A5 (trispecific tribody, Fab-(scFv)2) (other)
light: DIQMTQSPSSLSASVGDRVTINCQASESISSWLAWYQQKPGKRPKLLIYKASTLASGVPSRFSGSGSGTDYTLTISSLQPEDFATYYCQGYYLDSSVDDNVFGGGTKLTVLGRTRTVAAPSVFIFPPSDEQLKSGTASVVCLLNNFYPREAKVQWKVDNALQSGNSQESVTEQDSKDSTYSLSSTLTLSKADYEKHKVYACEVTHQGLSSPVTKSFNRGECGGGGSGGGGSDIQMTQSPSSLSASVGDRVTITCQSSESVYSNNQLSWYQQKPGQPPKLLIYDASDLASGVPSRFSGSGSGTDFTLTISSLQPEDFATYYCAGGFSSSSDTAFGGGTKLTVLGGGGGSGGGGSGGGGSGGGGSEVQLVESGGGLVQPGGSLRLSCAASGFSLSSNAMGWVRQAPGKGLEYIGIISVGGFTYYASWAKGRFTISRDNSKNTVYLQMNSLRAEDTATYFCARDRHGGDSSGAFYLWGQGTLVTVSS
heavy: EVQLVESGGGLVQPGGSLRLSCAASGIDFSTYGISWVRQAPGKGLEWIAYIYPDYGITDYASWVNGRFTISLDNAQNTVYLQMNSLRAEDTAVYYCARSGSYYSRGWGAHYFNLWGQGTLVTVSSASTKGPSVFPLAPSSKSTSGGTAALGCLVKDYFPEPVTVSWNSGALTSGVHTFPAVLQSSGLYSLSSVVTVPSSSLGTQTYICNVNHKPSNTKVDKKVEPKSCGGGGSGGGGSDIQMTQSPSSLSASVGDRVTITCQASQTINYWLAWYQQKPGKAPKLLIYRASTLASGVPSRFSGSGSGTDFTLTISSLQPEDFATYYCQNYYYSTSRSYGFGGGTKLTVLGGGGGSGGGGSGGGGSGGGGSEVQLVESGGGLVQPGGSLRLSCAASGFSFSSDYWMCWVRQAPGKGLEWIGCIYAGDVDDTDYASWARGRFTISRDNSKNTVYLQMNSLRAEDTAVYYCARVDGFDITYFDLWGQGTLVTVSS
notes: Trispecific tribody

What was measured:
[1] = molecular target: T1, human IL-17A (human, UniProt Q16552 24-155); assay: competitive ELISA: IL-17RA coated, biotinylated IL-17A preincubated with trispecific molecule
T1 construct: Recombinant human IL-17A (Peprotech Cat. No. 200-17), disulfide-linked homodimer from E. coli; Biotinylated or RPE-labelled in some assays; also called hIL-17A; IL-17A-RPE (labelled)
Experimental: (§1) Finally, Tetramethylbenzidine solution was added to develop the plate for 5 to 10 minutes and the reaction was stopped with 1 M HCl. The plate was read at 450 nm and 570 nm (reference wavelength).

[2] = molecular target: T1, human IL-17A; assay: SPR (summary table), affinity to human IL-17, capture setup
Experimental: (§2) In this experiment, the biotinylated antigens were captured using the Biotin-CAPture kit from Biacore. After each analyte injection cycle the CAP sensor chip was regenerated and new antigen was captured. Trispecific molecules were injected as analyte using a dose response multicycle kinetic assay with concentrations of the analyte ranging from 0.35 to 90 nM diluted in running buffer. Obtained sensorgrams were fitted using the 1:1 binding model.

[3] = molecular target: T2, human TNFα (human, UniProt P01375 77-233); assay: SPR (MASS-1), trispecific immobilised, antigens injected sequentially
T2 construct: Biotinylated in the Biacore assay
Experimental: (§3) All possible sequences of antigen injection were tested resulting in six possible sequences.
(§4) To evaluate concomitant binding of each antigen to trispecific molecules, the binding level relative to the theoretical Rmax was calculated for each injection using the respective ligand and analyte molecular masses and the immobilization level of the trispecific molecules. The average of the maximum binding relative to theoretical Rmax for each antigen was obtained by averaging individual maximum binding relative to theoretical Rmax obtained for the two injections where the respective antigen was injected as first analyte (in the absence of other bound antigens). Next, the binding relative to the theoretical Rmax of each analyte injection was compared to its average maximum binding to calculate the fraction binding obtained in the presence of other bound antigens. […] The binding levels relative to the theoretical Rmax and the average of maximum binding (binding levels in the absence of other antigens) of each antigen were calculated.

[4] = molecular target: T1, human IL-17A; assay: as above
Experimental: as §3, §4

[5] = molecular target: T3, human serum albumin (human, UniProt P02768 25-609); assay: as above
T3 construct: also called HSA
Experimental: as §3, §4

[6] = molecular target: T3, human serum albumin; assay: SPR (summary table), affinity to HSA at pH 5.5
Experimental: (§5) The binding to human serum albumin (HSA) and cynomolgus serum albumin (CSA) was assessed for purified trispecific molecules by running SPR spectroscopy on a MASS-1 device (Sierra Sensors). HSA was directly immobilized on a high capacity amine sensor chip (Sierra Sensors) and trispecific molecules were injected as analyte using a dose response multicycle kinetic assay with concentrations of the analyte ranging from 0.35 to 90 nM diluted either in running buffer at pH5.5 or pH7.5. Obtained sensorgrams were fitted using the 1:1 binding model. Affinity to CSA was assessed in a similar approach using a CSA immobilized sensor chip.

[7] = molecular target: T2, human TNFα; assay: cell-based or functional assay
[8] = molecular target: T1, human IL-17A; assay: competitive ELISA, blocking of IL-17A/IL-17RA interaction (summary table)
Experimental: as §1

[9] = molecular target: T2, human TNFα; assay: SPR (summary table), affinity to human TNF
Experimental: as §2

[10] = molecular target: T2, human TNFα; assay: SPR (Biacore T200), biotinylated antigen captured (Biotin-CAPture), trispecific as analyte;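 further: multicycle dose-response kinetics, analyte at 0.35–90 nM in running buffer, CAP chip regenerated with fresh antigen each cycle, sensorgrams fitted to a 1:1 binding model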
Experimental: as §2

[11] = molecular target: T1, human IL-17A; assay: as above
Experimental: as §2

[12] = molecular target: T3, human serum albumin; assay: SPR (MASS-1), trispecific immobilised, HSA injected as last analyte
Experimental: as §3, §4

[13] = molecular target: T3, human serum albumin; assay: SPR (MASS-1), HSA immobilised, trispecific as analyte, pH 7.4
Experimental: as §5

[14] = molecular target: T1, human IL-17A; assay: competitive ELISA: biotinylated human IL-17A preincubated with the trispecific molecule, then binding to coated IL-17RA detected (blocked ligand: IL-17RA) [right panel]
[15] = molecular target: T3, human serum albumin; assay: SPR (MASS-1), HSA immobilised, trispecific as analyte, pH 5.5
Experimental: as §5

[16] = molecular target: T2, human TNFα; assay: cell-based or functional assay; remark: listed apart in the source
[17] = molecular target: T2, human TNFα; assay: cell-based or functional assay; remark: listed apart in the source
[18] = molecular target: T1, human IL-17A; assay: cell-based or functional assay
[19] = molecular target: T4, cynomolgus serum albumin (cynomolgus monkey, UniProt A2V9Z4 25-608); assay: SPR (MASS-1), CSA immobilised, trispecific as analyte, pH 7.4
T4 construct: also called CSA
Experimental: as §5

[20] = molecular target: T5, cynomolgus monkey IL-17A (Macaca fascicularis (cynomolgus monkey)); assay: SPR (Biacore T200), biotinylated antigen captured (Biotin-CAPture), trispecific as analyte;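 further: multicycle dose-response kinetics, analyte at 0.35–90 nM in running buffer, CAP chip regenerated with fresh antigen each cycle, sensorgrams fitted to a 1:1 binding model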
T5 construct: also called cyno IL-17A; cyno IL17A
Experimental: as §2

[21] = molecular target: T4, cynomolgus serum albumin; assay: SPR (MASS-1), CSA immobilised, trispecific as analyte, pH 5.5
Experimental: as §5

[22] = molecular target: T1, human IL-17A; assay: competitive ELISA: biotinylated human IL-17A preincubated with the trispecific molecule, then binding to coated IL-17RA detected (blocked ligand: IL-17RA) [left panel]
[23] = molecular target: T1, human IL-17A; assay: cell-based or functional assay; remark: listed apart in the source

Row | Binder | rel. IC50 to secukinumab (IC50, secukinumab/IC50, test sample, ng/ml) [1] | Kd [2] | antigen binding relative to average maximum binding [3] | antigen binding relative to average maximum binding [4] | antigen binding relative to average maximum binding [5] | Kd [6] | IC50 in L929 assay, cell viability [7] | rel. IC50 in L929 assay (IC50, A13/IC50, test sample, nM) [7] | rel. IC50 (IC50, secukinumab/IC50, test sample, ng/ml) [8] | Kd [9] | Kd [10] | koff [10] | kon [10] | Kd [11] | koff [11] | Kd [13] | Kd [15] | rel. IC50 to A13 (nM) in HT-29 assay, -HSA [17] | rel. IC50 to secukinumab (ng/ml) in HT-29 assay, +HSA [18] | rel. IC50 to secukinumab (ng/ml) in HT-29 assay, -HSA [18] | also measured
1 | B1 | 10.2 | 0.483 nM | ≥ 70% | ≥ 70% | ≥ 70% | 0.799 nM | 0.03 nM | 0.4 | 10.2 | 0.185 nM | 0.185 nM | 4.06e-05 s⁻¹ | 219000 M⁻¹ s⁻¹ | 0.483 nM | 8.36e-05 s⁻¹ | 1.42 nM | 0.799 nM | 3.9 | 304 | 44.1 | kon [11]: 173000 M⁻¹ s⁻¹; relative binding level compared to average maximum binding [12]: ~70%; koff [13]: 0.00044 s⁻¹; kon [13]: 310000 M⁻¹ s⁻¹; IC50 (read off the curve) [14]: ~5 ng/mL; koff [15]: 0.000375 s⁻¹; kon [15]: 469000 M⁻¹ s⁻¹; potency to neutralize TNFα compared to A7 [16]: ~2 fold; rel. IC50 to A13 (nM) in HT-29 assay, +HSA [17]: 4.6
2 | B2 | 10.6 | 0.341 nM | ≥ 70% | ≥ 70% | ≥ 70% | 1.32 nM | 0.01 nM | 1 | 10.6 | 0.122 nM | 0.122 nM | 3.59e-05 s⁻¹ | 296000 M⁻¹ s⁻¹ | 0.341 nM | 7.83e-05 s⁻¹ | 1.91 nM | 1.32 nM | 4.8 | 64.5 | 52 | Kd [19]: 1.31 nM; koff [19]: 0.000215 s⁻¹; kon [19]: 164000 M⁻¹ s⁻¹; kon [11]: 229000 M⁻¹ s⁻¹; Kd [20]: 0.223 nM; koff [20]: 5.89e-05 s⁻¹; kon [20]: 264000 M⁻¹ s⁻¹; relative binding level compared to average maximum binding [12]: ~70%; koff [13]: 0.000369 s⁻¹; kon [13]: 193000 M⁻¹ s⁻¹; Kd [21]: 0.463 nM; koff [21]: 0.000147 s⁻¹; kon [21]: 318000 M⁻¹ s⁻¹; IC50 (read off the curve) [14]: ~5 ng/mL; koff [15]: 0.000373 s⁻¹; kon [15]: 284000 M⁻¹ s⁻¹; rel. IC50 to A13 (nM) in HT-29 assay, +HSA [17]: 1
3 | B3 | 4.9 | 0.575 nM | – | – | – | 1.66 nM | 0.02 nM | 0.9 | 4.9 | 0.1 nM | 0.1 nM | – | – | 0.575 nM | – | 2.69 nM | 1.66 nM | 2.4 | 63 | 88.9 | IC50 (read off the curve) [22]: ~4 ng/mL; Kd [19]: 2.47 nM; Kd [20]: 0.523 nM; Kd [21]: 0.795 nM; potency to neutralize IL-17A compared to A7 [23]: ~2 fold
